Nine molecules from patent US20230192897A1 (NUMAB THERAPEUTICS, published 2023) can be followed below.

Experiment [1] addresses T1, Fc tagged human PDL1 (human, UniProt Q9NZQ7 19-239).
T1 construct: Bought (Sino Biological, cat. 10084-H02H); captured on the SPR chip; also called PDL1-Fc chimeric protein
Nature of the experiment: SPR. As for the experimental part:
(§1) Affinity to PDL1 of the different species was determined by SPR measurements using a Biacore T200 device (GE Healthcare). An antibody specific for the Fc region of human IgGs was immobilized on a sensor chip (CM5 sensor chip, GE Healthcare) by amine-coupling. For all formats, with the exception of the Fc containing Morrison formats, PDL1-Fc chimeric protein from different species were captured by the immobilized antibody.
(§2) Three-fold serial dilutions of the molecules specific for PDL1 (0.12-90 nM) were injected into the flow cells for three minutes and dissociation was monitored for 10 minutes. After each injection cycle, surfaces were regenerated with one injection of a 3 M MgCl₂ solution. The apparent dissociation (kd) and association (kₐ) rate constants and the apparent dissociation equilibrium constant (KD) were calculated using one-to-one Langmuir binding model. Affinity to CD137 of the different species was determined using the identical setup as for PDL1 with the exception that CD137-Fc chimeric protein from different species were captured by the immobilized antibody.

In experiment [2] the target is T2, Fc tagged human CD137 (human, UniProt Q07011 24-186).
T2 construct: also called CD137-Fc chimeric protein
Kind of experiment: SPR. As for the experimental part: as §1, §2

In experiment [3] the target is CD137 on Jurkat NFkB reporter cells (human, UniProt Q07011 24-255). Kind of experiment: cell-based or functional assay.
Experiment [4] addresses T3, biotinylated human PDL1 (human, UniProt Q9NZQ7 19-238, limits assumed, biotinylated).
T3 construct: also called biotinylated PDL1
Nature of the experiment: competition ELISA PD-1/PDL1. Here is the method: (§3) Plates were blocked for 1 hour at room temperature by adding 300 μl of PBS with i%BSA and 0.2% tween (dilution buffer) to each well. Inhibitors were serially diluted in 3-fold steps to final concentrations ranging from 300 to 0.005 ng/ml in dilution buffer containing 1 ng/ml biotinylated human PDL1. The mixtures were pre-incubated for 1 hour at room temperature under gentle agitation on a rotating mixer (21 rpm) and added to the microplates after 3 wash cycles with 450 μl wash buffer per well. Plates were incubated for 1.5 hours at room temperature under gentle agitation, then 10 ng/ml streptavidin-polyHRP40 was added to each microplate well after three washes with 450 μl of wash buffer per well. After 1 h incubation at RT, plates were washed three times with 450 μl wash buffer and TMB substrate solution was added. The enzymatic reaction was stopped after 6 minutes by addition of 1 M HCl and absorbance was measured at 450 nm using 690 nm as a reference wavelength. For calculation of IC₅₀ values, a four-parameter logistic (4PL) curve fit was performed in Graph Pad Prism using reference subtracted values.

The target in experiment [5] is human PDL1 on cells (human, UniProt Q9NZQ7 19-290). Kind of experiment: cell-based or functional assay.
Experiment [6] deals with T3, biotinylated human PDL1. Kind of experiment: competition ELISA B7.1/PDL1. As for the experimental part:
as §3, with “1% BSA” for “i%BSA”, “Inhibitors were serially diluted in 3-fold steps to final concentrations ranging from 300 to 0.005 ng/ml in dilution buffer containing 1 ng/ml biotinylated human PDL1.” left out

Changes are numbered by the printed parent chain. Several values for one entry are separate records, joined by “and”; a condition that tells them apart may be missing. Equal entries are not always repeated. A value given as a limit tells only on which side of the number the result lay.

B1: PRO1392 (scFv)
scFv: DIQMTQSPSSLSASVGDRVTITCQASQSINDYLAWYQQKPGKAPKLLIYKASTLASGVPSRFSGSGSGTDFTLTISSLQPEDFATYYCQQGYIITDIDNVFGTGTKVTVLGGGGGSGGGGSGGGGSGGGGSQVQLQESGPGLVKPSETLSLTCKASGFSFSSGYDMCWVRQPPGKGLEWIACVVAGSVDITYYASWAKGRVTISKDSSKNQVSLKLSSVTAADTAVYYCARKDAYSDAFNLWGQGTLVTVSS
notes: also called scFv of 33-03-G02 sc18
Take B1: the Kd in experiment [1] came out at 9.94 pM.

B2: PRO1183 (scFv)
scFv: B1 scFv with I2F, M4L, A43S, V133S, Y228F
notes: also called scFv of 33 03-G02 sc03
In experiment [1], B2 came in with a Kd of less than 2.09 pM.

B3: PRO966 (other)
chain: DIQMTQSPSSLSASVGDRVTITCQASQSINDYLAWYQQKPGKAPKLLIYKASTLASGVPSRFSGSGSGTDFTLTISSLQPEDFATYYCQQGYIITDIDNVFGTGTKVTVLGGGGGSQVQLQESGPGLVKPSETLSLTCKVSGFSFNNDYDMCWIRQPPGKGLEWIGCIDTGDGSTYYASWAKGRVTISVDSSKNQFSLKLSSVTAADTAVYYCAREAASSSGYGMGYFDLWGQGTLVTVSSGGGGSGGGGSGGGGSGGGGSIQMTQSPSSLSASVGDRVTITCQSSQSVYDNNWLAWYQQKPGKAPKLLIYRASNLASGVPSRFSGSGSGTDFTLTISSLQPEDFATYYCQGTYLSSNWYWAFGTGTKVTVLGGGGGSQVQLQESGPGLVKPSETLSLTCKVSGFSFSSGYDMCWIRQPPGKGLEWIGCVVAGSVDITYYASWAKGRVTISVDSSKNQFSLKLSSVTAADTAVYYCARKDAYSDAFNLWGQGTLVTVSSGGGGSGGGGSIQMTQSPSSLSASVGDRVTITCQSSESVYSNNQLSWYQQKPGQPPKLLIYDASDLASGVPSRFSGSGSGTDFTLTISSLQPEDFATYYCAGGFSSSSDTAFGGGTKLTVLGGGGGSGGGGSGGGGSGGGGSEVQLVESGGGLVQPGGSLRLSCAASGFSLSSNAMGWVRQAPGKGLEYIGIISVGGFTYYASWAKGRFTISRDNSKNTVYLQMNSLRAEDTATYFCARDRHGGDSSGAFYLWGQGTLVTVSS
notes: trispecific scDb-scFv; also called PRO1052; 38-27-C05 sc01 scDb-i/33-03-G02 sc01 scDb-o/19-01-H04-sc03 scFv
With B3, the binding result in experiment [1] is recorded as “binds”. In experiment [2], binding was characterised by a dissociation constant (Kd) of 2200 pM and the off-rate constant (koff) worked out at 0.0022 s⁻¹.

B4: PRO1360 (scFv)
scFv: DFQLTQSPSSLSASVGDRVTITCQASQSISNRLAWYQQKPGKPPKLLIYSASTLASGVPSRFSGSGSGTDFTLTISSLQPEDFATYYCQSTYYGNDGNAFGTGTKVTVLGGGGGSGGGGSGGGGSGGGGSESQLVESGGGLVQPGGSLRLSCAASGFSFSANYYPCWVRQAPGKGLEWIGCIYGGSSDITYDANWTKGRFTISRDNSKNTVYLQMNSLRAEDTAVYFCARSAWYSGWGGDLWGPGTLVTVSS
notes: anti-CD137 scFv; also called 38-27-A11 sc03 scFv
As for B4, the Kd in experiment [2] was 234 pM.

B5: PRO1359 (scFv)
scFv: B4 scFv with F2I, L4M, P43A, S132V, F227Y, P244Q
notes: anti-CD137 scFv; also called 38-27-A11 sc02 scFv
As to B5, the equilibrium dissociation constant (Kd) in experiment [2] was 3240 pM and 3070 pM.

B6: PRO1347 (scFv)
scFv: DIQMTQSPASLSASVGDRVTITCQASQSIGTYLAWYQQKPGKPPKLLIYRAFILASGVPSRFSGSGSGTDFTLTISSLQPEDFATYYCQSNFYSDSTTIGPNAFGTGTKVTVLGGGGGSGGGGSGGGGSGGGGSEVQLVESGGGLVQPGGSLRLSCAASGFSFNSDYWIYWVRQAPGKGLEWIASIYGGSSGNTQYASWAQGRFTISRDNSKNTVYLQMNSLRAEDTAVYFCARGYVDYGGATDLWGQGTLVTVSS
notes: also called scFv of 37-20-sc09.1; 37-20-B03-sc09
B6: the equilibrium dissociation constant (Kd) in experiment [1] worked out at 9 pM.

B7: PRO1352 (scFv)
scFv: DIQMTQSPSSLSASVGDRVTITCQASQSINNVLAWYQQKPGKAPKLLIYRASTLASGVPSRFSGSGSGTDFTLTISSLQPEDFATYYCQSSYGNYGDFGCGTKVTVLGGGGGSGGGGSGGGGSGGGGSEVQLVESGGGLVQPGGSLRLSCAASGFSFSNSYWICWVRQAPGKCLEWIGCTFVGSSDSTYYANWAKGRFTISRDNSKNTVYLQMNSLRAEDTAVYYCARHPSDAVYGYANNLWGQGTLVTVSS
notes: also called scFv of 38-02-A04 sc13
For the molecule B7, in experiment [2], the affinity, expressed as Kd, was 1470 pM.

B8: PRO908 (scFv)
scFv: DIQMTQSPSSLSASVGDRVTITCQASQSIGTYLAWYQQKPGKAPKLLIYRAFILASGVPSRFSGSGSGTDFTLTISSLQPEDFATYYCQSNFYSDSTTIGPNAFGTGTKVTVLGGGGGSGGGGSGGGGSGGGGSQVQLQESGPGLVKPSETLSLTCKVSGFSFNSDYWIYWIRQPPGKGLEWIGSIYGGSSGNTQYASWAQGRVTISVDSSKNQFSLKLSSVTAADTAVYYCARGYVDYGGATDLWGQGTLVTVSS
notes: also called scFv of 37-20-B03 sc01
In turn, B8 registered a Kd in experiment [1] of 5.94 pM.

B9: PRO1482 (other)
chain: DIQMTQSPSSLSASVGDRVTITCQASQSINNVLAWYQQKPGKAPKLLIYRASTLASGVPSRFSGSGSGTDFTLTISSLQPEDFATYYCQSSYGNYGDFGCGTKVTVLGGGGGSEVQLVESGGGLVQPGGSLRLSCAASGFSFNSDYWIYWVRQAPGKGLEWIASIYGGSSGNTQYASWAQGRFTISRDNSKNTVYLQMNSLRAEDTAVYFCARGYVDYGGATDLWGQGTLVTVSSGGGGSGGGGSGGGGSGGGGSIQMTQSPASLSASVGDRVTITCQASQSIGTYLAWYQQKPGKPPKLLIYRAFILASGVPSRFSGSGSGTDFTLTISSLQPEDFATYYCQSNFYSDSTTIGPNAFGTGTKVTVLGGGGGSEVQLVESGGGLVQPGGSLRLSCAASGFSFSNSYWICWVRQAPGKCLEWIGCTFVGSSDSTYYANWAKGRFTISRDNSKNTVYLQMNSLRAEDTAVYYCARHPSDAVYGYANNLWGQGTLVTVSSGGGGSGGGGSIQMTQSPSSLSASVGDRVTITCQSSESVYSNNQLSWYQQKPGQPPKLLIYDASDLASGVPSRFSGSGSGTDFTLTISSLQPEDFATYYCAGGFSSSSDTAFGGGTKLTVLGGGGGSGGGGSGGGGSGGGGSEVQLVESGGGLVQPGGSLRLSCAASGFSLSSNAMGWVRQAPGKGLEYIGIISVGGFTYYASWAKGRFTISRDNSKNTVYLQMNSLRAEDTATYFCARDRHGGDSSGAFYLWGQGTLVTVSS
notes: trispecific scDb-scFv; also called 37-20-B03 sc09.1 scDb-i/38-02-A04 sc13 scDb-o/19-01-H04 sc03 scFv
On to B9, for which, in experiment [3], the “IC50 (ng/ml) (EC50 in Table 16C), NFkB reporter, HCC827 + IFNg, 6 h, +HSA” value was found to be 20.1 ng/mL; the “IC50 (ng/ml) (EC50 in Table 16C), NFkB reporter, HCC827 + IFNg, 24 h, +HSA” value came to 7.24 ng/mL; the “rel. IC50 (PRO1186/test), 6 h” value is 0.55 fold; the “rel. IC50 (PRO1186/test), 24 h” value was found to be 1.23 fold. For the same molecule, in experiment [4], the IC50 was found to be 1.78 ng/mL and the “rel. IC50 (IC50 avelumab/IC50 test)” value was found to be 1.24 fold. Further, in experiment [5], the “IC50 (ng/ml), NF-AT potency assay, +HSA” value came out at 54.8 ng/mL and the “rel. IC50 (avelumab/test), +HSA” value was 0.68 fold. In experiment [1], this molecule registered a Kd of 9.8 pM and a kon of 3.4e+06 M⁻¹ s⁻¹. In experiment [2], the Kd amounted to 1100 pM and the kon worked out at 320000 M⁻¹ s⁻¹. Moreover, in experiment [6], the 50% inhibitory concentration (IC50) was 8.18 ng/mL and the “rel. IC50 (IC50 avelumab/IC50 test)” value is 1.51 fold.
